Literature values in PMC3877032.

Tests used:
PLD1 (Homo sapiens) = PLD1 (Homo sapiens) (UniProt Q13393)
ERK2 (Homo sapiens) = ERK2 (Homo sapiens) (UniProt P28482)
Chain of UniProt P28482 (P28482 2-360): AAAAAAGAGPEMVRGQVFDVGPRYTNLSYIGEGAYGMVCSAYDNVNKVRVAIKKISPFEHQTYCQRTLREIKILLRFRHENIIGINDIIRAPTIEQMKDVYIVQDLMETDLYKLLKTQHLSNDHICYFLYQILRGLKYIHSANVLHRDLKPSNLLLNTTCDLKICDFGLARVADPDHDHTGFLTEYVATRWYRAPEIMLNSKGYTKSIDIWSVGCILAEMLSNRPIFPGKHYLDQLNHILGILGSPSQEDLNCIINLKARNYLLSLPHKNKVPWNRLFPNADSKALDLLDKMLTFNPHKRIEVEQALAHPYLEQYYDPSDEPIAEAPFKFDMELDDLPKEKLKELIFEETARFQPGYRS

Chain of UniProt Q13393 (Q13393 whole entry): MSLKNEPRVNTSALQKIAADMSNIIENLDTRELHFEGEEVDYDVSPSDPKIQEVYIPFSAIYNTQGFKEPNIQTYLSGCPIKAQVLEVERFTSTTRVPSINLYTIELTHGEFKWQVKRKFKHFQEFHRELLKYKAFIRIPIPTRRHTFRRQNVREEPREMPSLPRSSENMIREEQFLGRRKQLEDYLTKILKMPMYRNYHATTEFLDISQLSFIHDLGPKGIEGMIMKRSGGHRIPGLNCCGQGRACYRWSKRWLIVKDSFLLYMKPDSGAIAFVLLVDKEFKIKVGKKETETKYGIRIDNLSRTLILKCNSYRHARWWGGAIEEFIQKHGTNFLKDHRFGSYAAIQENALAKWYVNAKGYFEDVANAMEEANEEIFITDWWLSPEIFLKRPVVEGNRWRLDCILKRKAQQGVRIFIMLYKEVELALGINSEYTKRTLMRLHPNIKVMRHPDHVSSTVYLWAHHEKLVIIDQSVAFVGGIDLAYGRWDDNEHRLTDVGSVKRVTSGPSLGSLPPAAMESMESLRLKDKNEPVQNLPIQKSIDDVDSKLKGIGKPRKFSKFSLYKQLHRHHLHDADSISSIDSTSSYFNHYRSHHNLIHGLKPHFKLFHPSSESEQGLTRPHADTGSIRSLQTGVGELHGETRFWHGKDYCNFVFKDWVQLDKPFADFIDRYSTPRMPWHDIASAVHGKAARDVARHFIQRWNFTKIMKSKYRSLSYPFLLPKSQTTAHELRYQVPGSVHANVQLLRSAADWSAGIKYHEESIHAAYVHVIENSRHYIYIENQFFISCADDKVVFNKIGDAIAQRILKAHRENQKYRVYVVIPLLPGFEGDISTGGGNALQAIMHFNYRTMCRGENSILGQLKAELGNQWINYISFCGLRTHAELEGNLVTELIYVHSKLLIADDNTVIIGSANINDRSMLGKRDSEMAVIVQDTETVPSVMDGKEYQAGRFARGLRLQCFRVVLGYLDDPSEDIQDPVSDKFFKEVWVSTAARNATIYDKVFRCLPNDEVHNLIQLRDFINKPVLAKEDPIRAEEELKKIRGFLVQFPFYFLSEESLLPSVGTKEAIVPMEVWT

Kd (ERK2 (Homo sapiens)): 0.133 µM
Substance: PEA-15 (from UniProt Q15121)
Kd (PLD1 (Homo sapiens)): 0.37 µM
